Measurements taken from publication PMC10197580 (bioRxiv, 2023).
Where two headings read alike, the source gives them in different places. Values belong to the binder of their own block, whether it stands above or below them.

How the values were obtained:
His6-MBP-Ctc1 [1] = target: T1, His6-MBP-Ctc1 (human, UniProt Q2NKJ3 1-1217); test: cryo-EM structure
T1 sequence: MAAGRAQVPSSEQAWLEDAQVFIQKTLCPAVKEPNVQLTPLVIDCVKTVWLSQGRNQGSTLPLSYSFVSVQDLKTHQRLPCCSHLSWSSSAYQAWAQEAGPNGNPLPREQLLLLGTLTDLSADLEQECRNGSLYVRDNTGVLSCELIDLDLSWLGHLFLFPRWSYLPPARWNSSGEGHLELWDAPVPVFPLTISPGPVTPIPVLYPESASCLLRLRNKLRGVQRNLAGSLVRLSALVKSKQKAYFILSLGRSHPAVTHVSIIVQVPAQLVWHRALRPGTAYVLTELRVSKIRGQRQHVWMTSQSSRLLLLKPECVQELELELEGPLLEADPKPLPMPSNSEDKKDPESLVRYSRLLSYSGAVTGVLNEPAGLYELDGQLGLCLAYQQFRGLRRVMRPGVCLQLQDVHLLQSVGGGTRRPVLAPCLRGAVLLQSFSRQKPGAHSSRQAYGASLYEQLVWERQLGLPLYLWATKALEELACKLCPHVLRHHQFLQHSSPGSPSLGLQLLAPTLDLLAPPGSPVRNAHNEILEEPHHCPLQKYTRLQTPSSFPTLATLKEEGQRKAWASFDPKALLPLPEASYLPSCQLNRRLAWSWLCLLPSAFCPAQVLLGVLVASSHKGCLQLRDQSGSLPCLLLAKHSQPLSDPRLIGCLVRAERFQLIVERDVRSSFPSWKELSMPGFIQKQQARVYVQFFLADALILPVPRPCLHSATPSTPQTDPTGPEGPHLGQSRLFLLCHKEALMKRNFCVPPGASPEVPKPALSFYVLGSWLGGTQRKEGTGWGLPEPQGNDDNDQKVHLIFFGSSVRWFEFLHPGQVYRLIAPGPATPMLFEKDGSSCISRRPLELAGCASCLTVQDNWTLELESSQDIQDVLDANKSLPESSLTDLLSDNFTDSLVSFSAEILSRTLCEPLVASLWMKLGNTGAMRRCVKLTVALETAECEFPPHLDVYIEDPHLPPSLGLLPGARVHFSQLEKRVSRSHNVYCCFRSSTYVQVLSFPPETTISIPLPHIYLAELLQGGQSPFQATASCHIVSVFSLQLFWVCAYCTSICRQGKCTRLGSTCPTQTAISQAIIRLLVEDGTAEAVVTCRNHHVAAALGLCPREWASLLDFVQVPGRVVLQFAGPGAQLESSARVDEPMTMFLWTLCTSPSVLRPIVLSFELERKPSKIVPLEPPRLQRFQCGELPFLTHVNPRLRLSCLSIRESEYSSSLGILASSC

His6-MBP-Ctc1/Stn1/Ten1 [2] = target: T2, His6-MBP-Ctc1/Stn1/Ten1 (human, UniProt Q2NKJ3;Q9H668;Q86WV5); test: SEC
His6-MBP-Ctc1/Stn1/Ten1 [3] = target: T2, His6-MBP-Ctc1/Stn1/Ten1; test: cryo-EM structure
[4] = target: CST with the His6-MBP tag cleaved (human, UniProt Q2NKJ3;Q9H668;Q86WV5); test: negative-stain EM
[5] = target: T3, TwinStrep-GFP-TPP1 OB+RD (aa 1–251) (human, UniProt Q96AP0 1-251); test: cryo-EM structure
T3 sequence: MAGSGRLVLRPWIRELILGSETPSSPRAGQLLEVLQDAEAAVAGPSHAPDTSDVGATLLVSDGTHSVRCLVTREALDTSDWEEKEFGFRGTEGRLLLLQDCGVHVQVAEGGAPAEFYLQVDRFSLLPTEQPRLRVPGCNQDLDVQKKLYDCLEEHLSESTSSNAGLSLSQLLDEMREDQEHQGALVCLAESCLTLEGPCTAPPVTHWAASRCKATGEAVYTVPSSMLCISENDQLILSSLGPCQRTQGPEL

His6-MBP-Ctc1 [6] = target: T1, His6-MBP-Ctc1; test: cryo-EM structure; remark: listed apart in the source

T2 sequence (Q86WV5 whole entry, one chain of several): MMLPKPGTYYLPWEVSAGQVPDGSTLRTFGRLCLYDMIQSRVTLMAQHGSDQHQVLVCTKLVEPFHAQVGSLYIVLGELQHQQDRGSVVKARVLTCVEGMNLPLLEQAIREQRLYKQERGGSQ
Chain of CST with the His6-MBP tag cleaved (Q86WV5 whole entry, the tested form may be a part, one chain of several): as the sequence (Q86WV5 whole entry, one chain of several) above

B2: POT1(SED)/GFP-TPP1 (complex)
chain 1: MSLVPATNYIYTPLNQLKGGTIVNVYGVVKFFKPPYLSKGTDYCSVVTIVDQTNVKLTCLLFSGNYEALPIIYKNGDIVRFHRLKIQVYKKETQGITSSGFASLTFEGTLGAPIIPRTSSKYFNFTTEDHKMVEALRVWASTHMSPSWTLLKLCDVQPMQYFDLTCQLLGKAEVDGASFLLKVWDGTRTPFPSWRVLIQDLVLEGDLSHIHRLQNLTIDILVYDNHVHVARSLKVGSFLRIYSLHTKLQSMNSENQTMLSLEFHLHGGTSYGRGIRVLPESNSDVDQLKKDLESANLTANQHSDVICQSEPDDSSPESDSVSLYEVERCQQLSATILTDHQYLERTPLCAILKQKAPQQYRIRAKLRSYKPRRLFQSVKLHCPKCHLLQEVPHEGDLDIIFQDGATKTPDVKLQNTSLYDSKIWTTKNQKGRKVAVHFVKNNGILPLSNECLLLIEGGTLSEICKLSNKFNSVIPVRSGHEDLELLDLSAPFLIQGTIHHYGCKQCSSLRSIQNLNSLVDKTSWIPSSVAEALGIVPLQYVFVMTFTLDDGTGVLEAYLMDSDKFFQIPASEVLMDDDLQKSVDMIMDMFCPPGIKIDAYPWLECFIKSYNVTNGTDNQICYQIFDTTVAEDVI
chain 2: MAGSGRLVLRPWIRELILGSETPSSPRAGQLLEVLQDAEAAVAGPSHAPDTSDVGATLLVSDGTHSVRCLVTREALDTSDWEEKEFGFRGTEGRLLLLQDCGVHVQVAEGGAPAEFYLQVDRFSLLPTEQPRLRVPGCNQDLDVQKKLYDCLEEHLSESTSSNAGLSLSQLLDEMREDQEHQGALVCLAESCLTLEGPCTAPPVTHWAASRCKATGEAVYTVPSSMLCISENDQLILSSLGPCQRTQGPEL
binding result (His6-MBP-Ctc1/Stn1/Ten1 [2]): binds

B3: POT1(SED)/GFP-TPP1 treated with λ protein phosphatase (complex)
chain 1: MSLVPATNYIYTPLNQLKGGTIVNVYGVVKFFKPPYLSKGTDYCSVVTIVDQTNVKLTCLLFSGNYEALPIIYKNGDIVRFHRLKIQVYKKETQGITSSGFASLTFEGTLGAPIIPRTSSKYFNFTTEDHKMVEALRVWASTHMSPSWTLLKLCDVQPMQYFDLTCQLLGKAEVDGASFLLKVWDGTRTPFPSWRVLIQDLVLEGDLSHIHRLQNLTIDILVYDNHVHVARSLKVGSFLRIYSLHTKLQSMNSENQTMLSLEFHLHGGTSYGRGIRVLPESNSDVDQLKKDLESANLTANQHSDVICQSEPDDSSPESDSVSLYEVERCQQLSATILTDHQYLERTPLCAILKQKAPQQYRIRAKLRSYKPRRLFQSVKLHCPKCHLLQEVPHEGDLDIIFQDGATKTPDVKLQNTSLYDSKIWTTKNQKGRKVAVHFVKNNGILPLSNECLLLIEGGTLSEICKLSNKFNSVIPVRSGHEDLELLDLSAPFLIQGTIHHYGCKQCSSLRSIQNLNSLVDKTSWIPSSVAEALGIVPLQYVFVMTFTLDDGTGVLEAYLMDSDKFFQIPASEVLMDDDLQKSVDMIMDMFCPPGIKIDAYPWLECFIKSYNVTNGTDNQICYQIFDTTVAEDVI
chain 2: MAGSGRLVLRPWIRELILGSETPSSPRAGQLLEVLQDAEAAVAGPSHAPDTSDVGATLLVSDGTHSVRCLVTREALDTSDWEEKEFGFRGTEGRLLLLQDCGVHVQVAEGGAPAEFYLQVDRFSLLPTEQPRLRVPGCNQDLDVQKKLYDCLEEHLSESTSSNAGLSLSQLLDEMREDQEHQGALVCLAESCLTLEGPCTAPPVTHWAASRCKATGEAVYTVPSSMLCISENDQLILSSLGPCQRTQGPEL
modifications: dephosphorylated with λ protein phosphatase | dephosphorylated with λ protein phosphatase
binding result (His6-MBP-Ctc1/Stn1/Ten1 [2]): binds

B4: His6-POT1(ESDL)/TwinStrep-GFP-TPP1 (complex)
chain 1: MSLVPATNYIYTPLNQLKGGTIVNVYGVVKFFKPPYLSKGTDYCSVVTIVDQTNVKLTCLLFSGNYEALPIIYKNGDIVRFHRLKIQVYKKETQGITSSGFASLTFEGTLGAPIIPRTSSKYFNFTTEDHKMVEALRVWASTHMSPSWTLLKLCDVQPMQYFDLTCQLLGKAEVDGASFLLKVWDGTRTPFPSWRVLIQDLVLEGDLSHIHRLQNLTIDILVYDNHVHVARSLKVGSFLRIYSLHTKLQSMNSENQTMLSLEFHLHGGTSYGRGIRVLPESNSDVDQLKKDLESANLTANQHSDVICQSEPDDSFPSSGSESDLVSLYEVERCQQLSATILTDHQYLERTPLCAILKQKAPQQYRIRAKLRSYKPRRLFQSVKLHCPKCHLLQEVPHEGDLDIIFQDGATKTPDVKLQNTSLYDSKIWTTKNQKGRKVAVHFVKNNGILPLSNECLLLIEGGTLSEICKLSNKFNSVIPVRSGHEDLELLDLSAPFLIQGTIHHYGCKQCSSLRSIQNLNSLVDKTSWIPSSVAEALGIVPLQYVFVMTFTLDDGTGVLEAYLMDSDKFFQIPASEVLMDDDLQKSVDMIMDMFCPPGIKIDAYPWLECFIKSYNVTNGTDNQICYQIFDTTVAEDVI
chain 2: MAGSGRLVLRPWIRELILGSETPSSPRAGQLLEVLQDAEAAVAGPSHAPDTSDVGATLLVSDGTHSVRCLVTREALDTSDWEEKEFGFRGTEGRLLLLQDCGVHVQVAEGGAPAEFYLQVDRFSLLPTEQPRLRVPGCNQDLDVQKKLYDCLEEHLSESTSSNAGLSLSQLLDEMREDQEHQGALVCLAESCLTLEGPCTAPPVTHWAASRCKATGEAVYTVPSSMLCISENDQLILSSLGPCQRTQGPEL
modifications: phosphorylated in insect cells (sites not identified)
binding result (His6-MBP-Ctc1/Stn1/Ten1 [3]): binds
binding result [4]: binds

Results, then the binder that gave them:

binding result (His6-MBP-Ctc1 [1]): binds
B1: Stn1 (natural protein)
chain: MQPGSSRCEEETPSLLWGLDPVFLAFAKLYIRDILDMKESRQVPGVFLYNGHPIKQVDVLGTVIGVRERDAFYSYGVDDSTGVINCICWKKLNTESVSAAPSAARELSLTSQLKKLQETIEQKTKIEIGDTIRVRGSIRTYREEREIHATTYYKVDDPVWNIQIARMLELPTIYRKVYDQPFHSSALEKEEALSNPGALDLPSLTSLLSEKAKEFLMENRVQSFYQQELEMVESLLSLANQPVIHSASSDQVNFKKDTTSKAIHSIFKNAIQLLQEKGLVFQKDDGFDNLYYVTREDKDLHRKIHRIIQQDCQKPNHMEKGCHFLHILACARLSIRPGLSEAVLQQVLELLEDQSDIVSTMEHYYTAF

binding result [5]: binds
binding result (His6-MBP-Ctc1 [6]): binds
B5: POT1(ESDL) (natural protein)
chain: MSLVPATNYIYTPLNQLKGGTIVNVYGVVKFFKPPYLSKGTDYCSVVTIVDQTNVKLTCLLFSGNYEALPIIYKNGDIVRFHRLKIQVYKKETQGITSSGFASLTFEGTLGAPIIPRTSSKYFNFTTEDHKMVEALRVWASTHMSPSWTLLKLCDVQPMQYFDLTCQLLGKAEVDGASFLLKVWDGTRTPFPSWRVLIQDLVLEGDLSHIHRLQNLTIDILVYDNHVHVARSLKVGSFLRIYSLHTKLQSMNSENQTMLSLEFHLHGGTSYGRGIRVLPESNSDVDQLKKDLESANLTANQHSDVICQSEPDDSFPSSGSESDLVSLYEVERCQQLSATILTDHQYLERTPLCAILKQKAPQQYRIRAKLRSYKPRRLFQSVKLHCPKCHLLQEVPHEGDLDIIFQDGATKTPDVKLQNTSLYDSKIWTTKNQKGRKVAVHFVKNNGILPLSNECLLLIEGGTLSEICKLSNKFNSVIPVRSGHEDLELLDLSAPFLIQGTIHHYGCKQCSSLRSIQNLNSLVDKTSWIPSSVAEALGIVPLQYVFVMTFTLDDGTGVLEAYLMDSDKFFQIPASEVLMDDDLQKSVDMIMDMFCPPGIKIDAYPWLECFIKSYNVTNGTDNQICYQIFDTTVAEDVI
modifications: phosphorylated in insect cells (sites not identified)
